Assay results from patent US9969998B2, “Compositions of adenosine deaminase-2 (ADA2), variants thereof and methods of using same” (Halozyme, Inc., priority 2014, dated 2018).
Positions count from the first letter of the chain named. Numbers in names are those of the source.

Assays:
[1] = Thermal stability, melting temperature (Tm) by differential scanning fluorimetry; type: physicochemical; settings: compared to ADA1
Source text: Proteins differ in their degrees of thermal stability (or thermostability). In particular, proteins with biological activities, such as enzymes, can have different optimal temperatures. Thermostability, the quality of a protein to resist irreversible change in its chemical or physical structure at a relatively high temperature, can be indicative of overall stability of a protein. Increased temperature usually induces protein unfolding, and disruption of secondary, tertiary and quaternary structure of proteins, leading to destabilization of protein. Thermostability of a protein, such as any ADA2 polypeptide provided herein, can be determined by measuring the changes in enzymatic activity and/or other physical properties, before and after incubation in relatively high or low temperatures.
The stability of a protein can be determined by measuring the activity of the protein as a function of time. The melting temperature (Tm) of the protein can be used as a marker of solution stability and in vivo stability for proteins. The unfolding temperature of a particular protein refers to that temperature at which the protein loses its secondary structure and typically, its activity and can be determined using methods known to those of skill in the art and described herein, such as differential scanning calorimetry […]. […] In other examples, the thermal stability can be measured biochemically. […]

[2] = Distribution in normal organs of naive mice vs. CT26 tumors (IVIS); type: in vivo, Balb/c mice; settings: 24 hr; for (Fluorescent intensity/Tissue Weight) - Baseline: 0.5 mg/kg IV
Procedure: To assess the distribution and elimination of administered PEG-ADA2-K374D in the tumor microenvironment or in normal organs, immunofluorescence was used to assess the presence of PEG-ADA2-K374D administered to mice. PEG-ADA2-K374D was labeled at room temperature for 60 minutes with DyLight755 Sulfydryl-Reactive Dye (DL755), a near-IR fluor, using the DyLight 755 Antibody Labeling Kit (Thermo Scientific, Rockford, Ill.). Alexa Fluor 750 (AF 750) labeled bovine serum albumin (BSA, 1 mg/mL) was purchased from (Life Technology, Carlsbad, Calif.).
To compare the distribution in naïve mice, CT26-tumor bearing mice were generated as described above, and were intravenously administered PEG-ADA2-K374D^DL755 at 0.5 mg/kg (n=3). Separately, naïve Balb/c mice also were intravenously administered PEG-ADA2-K374D^DL755 at 0.5 mg/kg (n=4). The mice were sacrificed and transcardically perfused with heparin normal saline 24 hours post PEG-ADA2-K374D^DL755 injection. Tumors from tumor-bearing mice and organs from naïve mice were collected and imaged with IVIS image system, and DL755 signal intensity was measured with LivingImage software as described above. Signal intensity was normalized by tissue organ weight.

B1: ADA2: wild-type human adenosine deaminase 2, mature form SEQ ID NO:5, homodimer (protein, listed as Homo sapiens)
chain: IDETRAHLLLKEKMMRLGGRLVLNTKEELANERLMTLKIAEMKEAMRTLIFPPSMHFFQAKHLIERSQVFNILRMMPKGAALHLHDIGIVTMDWLVRNVTYRPHCHICFTPRGIMQFRFAHPTPRPSEKCSKWILLEDYRKRVQNVTEFDDSLLRNFTLVTQHPEVIYTNQNVVWSKFETIFFTISGLIHYAPVFRDYVFRSMQEFYEDNVLYMEIRARLLPVYELSGEHHDEEWSVKTYQEVAQKFVETHPEFIGIKIIYSDHRSKDVAVIAESIRMAMGLRIKFPTVVAGFDLVGHEDTGHSLHDYKEALMIPAKDGVKLPYFFHAGETDWQGTSIDRNILDALMLNTTRIGHGFALSKHPAVRTYSWKKDIPIEVCPISNQVLKLVSDLRNHPVATLMATGHPMVISSDDPAMFGAKGLSYDFYEVFMGIGGMKADLRTLKQLAMNSIKYSTLLESEKNTFMEIWKKRWDKFIADVATK
modifications: ADA2 mature protein
With B1 the thermal stability [1] was “higher thermal stability”.

B2: PEG-K374D: rHuADA2-K374D (SEQ ID NO:20) PEGylated on surface exposed lysines with linear PEG-20K (conjugate)
chain: B1 chain with K371D
modifications: linear PEG-20K on surface lysines; human ADA2 K371D, mature numbering
For B2, the “(Fluorescent intensity/Tissue Weight) - Baseline” value ([2]; Bone, naive mice) was 1.82E+06, the “(Fluorescent intensity/Tissue Weight) - Baseline” value ([2]; Brain, naive mice) was 2.11E+05 and the “(Fluorescent intensity/Tissue Weight) - Baseline” value ([2]; Colon, naive mice) was 9.13E+05. For the same molecule, the “(Fluorescent intensity/Tissue Weight) - Baseline” value ([2]; Heart, naive mice) was 5.55E+05, the “(Fluorescent intensity/Tissue Weight) - Baseline” value ([2]; Kidney, naive mice) was 8.61E+05 and the “(Fluorescent intensity/Tissue Weight) - Baseline” value ([2]; Liver, naive mice) was 4.02E+06. For the same molecule, the “(Fluorescent intensity/Tissue Weight) - Baseline” value ([2]; Lung, naive mice) was 1.22E+06, the “(Fluorescent intensity/Tissue Weight) - Baseline” value ([2]; Spleen, naive mice) was 2.98E+06 and the “(Fluorescent intensity/Tissue Weight) - Baseline” value ([2]; Tumor, CT26 tumor-bearing mice) was 6.22E+06. The “Signal Intensity (Tumor vs Organ)” value ([2]; ratio tumor/Bone) was 3.4, the “Signal Intensity (Tumor vs Organ)” value ([2]; ratio tumor/Brain) was 29.5 and the “Signal Intensity (Tumor vs Organ)” value ([2]; ratio tumor/Colon) was 6.8. For the same molecule, the “Signal Intensity (Tumor vs Organ)” value ([2]; ratio tumor/Heart) was 11.2, the “Signal Intensity (Tumor vs Organ)” value ([2]; ratio tumor/Kidney) was 7.2 and the “Signal Intensity (Tumor vs Organ)” value ([2]; ratio tumor/Liver) was 1.5. The “Signal Intensity (Tumor vs Organ)” value ([2]; ratio tumor/Lung) was 5.1 and the “Signal Intensity (Tumor vs Organ)” value ([2]; ratio tumor/Spleen) was 2.1.
